Tested on: MS2 coat protein
Assay: apparent KD of MS2 coat protein; designed switch direction (-1 OFF switch, 1 ON switch): -1; higher = weaker reporter binding
In short: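 The apparent KD reported per design is the median over clusters of curve fits to normalised cluster fluorescence. The RNA switches were transcribed on Illumina chips by stalled E. coli RNA polymerase. SNAP-549-labelled MS2 coat protein was titrated from 0.7 or 1.5 nM, doubling up to 3 µM, in Tris-HCl pH 7.5 buffer containing KCl, MgCl2, BSA, DTT, tRNA and Tween-20, with no input, 200 uM small-molecule ligand, or an oligonucleotide input.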

[1] = input ligand: microRNA oligo, concentration not stated
[2] = Eterna round: R95, input ligand: FMN 200 uM
[3] = Eterna round: R95, input ligand: microRNA oligo, concentration not stated
[4] = Eterna round: R95, input ligand: none

| Sequence | apparent KD of MS2 coat protein (input ligand: FMN 200 uM) | apparent KD of MS2 coat protein (input ligand: none) | apparent KD of MS2 coat protein [1] | apparent KD of MS2 coat protein [2] | apparent KD of MS2 coat protein [3] | apparent KD of MS2 coat protein [4] |
| --- | --- | --- | --- | --- | --- | --- |
| UAAAUGUGAGGAUAUUCGUAGAACUCGGAGACGAGUUUUACGGAGAAGGCACAUGAGGAUCACCCAUGUUCCUU [Mat - Exclusion 4 - JL Mod - D2] (Eterna round: R97, puzzle: Exclusion 4) | 169 nM | 28.6 nM |  |  |  |  |
| UAACAAAUGGUCAGGAUAUCACUCCCGGCCCAGAGUGAGAAGGGACAUGAGGAUCACCCAUGUAUGAUUCUCAC [jl-ex4-4.54 ViennaUCT mod] (Eterna round: R97, puzzle: Brourd's mod of Exclusion 4) | 19.7 nM | 15.1 nM |  |  |  |  |
| UAACGGGCUUCUUCGUUUACAACAUGAGGAUCACCCAUGUUCGAGGAUAUCCACUAAGCUCUUCAGGAGAAGGCGAACAUAAUG [Rizaoran] (Eterna round: R96, puzzle: Exclusion NG 3) | 37.2 nM | 14.6 nM | 15.1 nM |  |  |  |
| UAAGAUUACCGAGGAUAUGCUGGUUUCUAUUAAGCAGAAGGCGGACUCAACAUGAGGAUCACCCAUGUAAGAAGGGUAUUAGAU [Ex NG1 #9] (Eterna round: R96, puzzle: Exclusion NG 1) | 89.8 nM | 94.8 nM | 82.1 nM |  |  |  |
| UAAGAUUACCGAGGAUAUGCUGGUUUCUCUCAAGCAGAAGGCGGACUCAACAUGAGGAUCACCCAUGUAAGACGGGUACUAGAU [Ex NG1 #11] (Eterna round: R96, puzzle: Exclusion NG 1) | 133 nM | 574 nM | 76.6 nM |  |  |  |
| UAAGGACAUGAGGAUCACCCAUGUUAGGAUAUGCCGAGGGAGACCCGUGUUGACACUUGCAGAAGGAGUAUGGG [Eternabot (L1) Solution 25] (Eterna round: R97, puzzle: Exclusion 1) | 70.4 nM | 86.2 nM |  |  |  |  |
| UAAGUGUGAGGAUAUGGUAAAGAUAGAAUGAUGAAAGAACUCCAGAAGGCACAUGAGGAUCACCCAUGUAGAUG [Mat - Exclusion 4 - Mod of JL - D24] (puzzle: Exclusion 4) |  |  |  | 60.2 nM | 30.8 nM | 31.9 nM |
| UAAUACAAGUAGAGAUUCUACAUGAGGAUCACCCAUGUGCUCGUCUUAUAAAGUACUAUCACGAAAGUGAUAGUACA [Mat - Sensor v3 - turn-off var 1 - Eli Mod - D97] (Eterna round: R96, puzzle: Sensor v3, turn-off variant 1) | 22.1 nM | 22.4 nM | 124 nM |  |  |  |
| UAAUACAAGUAGAGAUUCUACAUGAGGAUCACCCAUGUGCUCGUCUUAUAAAGUACUAUCACGAAAGUGAUAGUACA [Mat - Sensor v3 - turn-off var 1 - Eli Mod - D97] (puzzle: Sensor v3, turn-off variant 1) |  |  |  | 23 nM | 322 nM | 19.7 nM |
| UAAUACAAGUAGAGAUUCUACAUGAGGAUCACCCAUGUGCUCGUCUUAUAAAGUACUAUCACGAAAGUGAUAGUACU [Mat - Sensor v3 - turn-off var 1 - Eli Mod - D98] (puzzle: Sensor v3, turn-off variant 1) |  |  |  | 18.3 nM | 192 nM | 17.4 nM |
| UAAUAGCAAGCAAGAUCCCACAUGAGGAUCACCCAUGUGCUCGUCUUAUAAGGUACUGUGACGAAAGUCACGGUACC [Sensor 3, v1 - 98] (puzzle: Sensor v3, turn-off variant 1) |  |  |  | 45.5 nM | 535 nM | 47.5 nM |
| UAAUAUCUGCAGGAUAUCGGUGUAGCACGCGUAUGAGAAGGGCAGACAUGAGGAUCACCCAUGUAUAGGGUCCG [BotMod 1 - Jieux - Exclusion 6] (Eterna round: R97, puzzle: Exclusion 6) | 246 nM | 49.4 nM |  |  |  |  |
| UAAUUGAUUAAUAAAUAAUACAUGAGGAUCACCCAUGUAGAUCCUACAUACCAUUUAAGUAGCUCGUCUUAUUAUUA [Sensor-V1 #62] (Eterna round: R97, puzzle: Sensor, turn-off variant 1) | 217 nM | 213 nM |  |  |  |  |
| UACAUGAGGAUCACCCAUGUUUUGUCGUGUAUGGUAUUUAUCUAGGAUAUCAAUGGAUUUAUUUAUGAGAAGGAGAAUAUUAAU [JMF's solution 38] (Eterna round: R96, puzzle: Exclusion NG 3) | 39.6 nM | 32.3 nM | 25.6 nM |  |  |  |
| UACAUGAGGAUCACCCAUGUUUUGUCGUGUAUGGUAUUUAUCUAGGAUAUCAAUGUAUUUAUUUAUGAGAAGGAGAAUAUUAAU [JMF's solution 12] (Eterna round: R96, puzzle: Exclusion NG 3) |  |  | 29.6 nM |  |  |  |
| UACAUGAGGAUCACCCAUGUUUUGUCGUGUAUGGUAUUUAUCUAGGAUAUCAAUUUGUGUAUUUAUGAGAAGGAGAAUAUUAAU [JMF's solution 68] (Eterna round: R96, puzzle: Exclusion NG 3) | 44 nM | 45.8 nM | 29.5 nM |  |  |  |

| Sequence | apparent KD of MS2 coat protein (input ligand: FMN 200 uM) | apparent KD of MS2 coat protein (input ligand: none) | apparent KD of MS2 coat protein [1] | apparent KD of MS2 coat protein [2] | apparent KD of MS2 coat protein [3] | apparent KD of MS2 coat protein [4] |
| --- | --- | --- | --- | --- | --- | --- |
| UACAUGAGGAUCACCCAUGUUUUGUCGUGUAUGGUAUUUAUCUAGGAUAUCAUAUUAUUUAGUUAUGAGAAGGAGAAUAUUAAU [JMF's solution 80] (Eterna round: R96, puzzle: Exclusion NG 3) | 24.9 nM | 19.3 nM | 12.7 nM |  |  |  |
| UACAUGAGGAUCACCCAUGUUUUGUCGUGUAUGGUAUUUAUCUAGGAUAUCAUGUUAUUUAGUUAUGAGAAGGAGAAUAUUAAU [JMF's solution 81] (Eterna round: R96, puzzle: Exclusion NG 3) | 45.6 nM | 38.5 nM | 31.3 nM |  |  |  |
| UACAUGAGGAUCACCCAUGUUUUGUCGUGUAUGGUAUUUAUCUAGGAUAUCAUUAUAUUUAUUUAUGAGAAGGAGAAUAUUAAU [JMF's solution 97] (Eterna round: R96, puzzle: Exclusion NG 3) | 29.9 nM | 27.6 nM | 21.9 nM |  |  |  |
| UACCUGAGGCAAAGCUUUAGGCUUACAUGAGGAUCACCCAUGUAGGAUAUGGUAGGCAAAGCUUACCAGAAGGACAUGGAAAUU [Mat - Exclusion NG 3 - Mod of JL - D23] (Eterna round: R96, puzzle: Exclusion NG 3) | 398 nM | 86.8 nM | 68.1 nM |  |  |  |
| UAGAAAGGUAAGGAUAUCCUUGAGAAAGAAAGAGGAGAAGGUACCACAUGAGGAUCACCCAUGUGGCUCUCAAA [jl-ex6-4.57 Nando mod] (Eterna round: R97, puzzle: Exclusion 6) | 15.2 nM | 13.7 nM |  |  |  |  |
| UAGAAGCUCAGGGAGUGAGACAUGAGGAUCACCCAUGUGGUGGUAGGGAACAAGCUUUUUGCACGUACUUAUGAGGA [JR_SV3TOV1_Sub006] (puzzle: Sensor v3, turn-off variant 1) |  |  |  | 367 nM | 134 nM | 189 nM |
| UAGAAGGUAGGAUAUACGAAUAAAUAGGGUAGUAAGAAGACACAUGAGGAUCACCCAUGUAGAAGGACCAAGAU [Mat - Exclusion 2 - Mod of my Tesla design - D33] (puzzle: Exclusion 2) |  |  |  | 33.5 nM | 19.4 nM | 20.6 nM |
| UAGAUGGGAGGAUAUACGUAGAUGCAGGUUCGUGUGGUGCUACAUGAGGAUCACCCAUGUAGAAGGCCCGUCUU [JL-ex2-2.29 Mayanne mod] (Eterna round: R96, puzzle: Exclusion 2) | 69.4 nM | 18.4 nM | 14.1 nM |  |  |  |
| UAGAUGGGAGGAUAUACGUAGAUGCAGGUUCGUGUGGUGCUACAUGAGGAUCACCCAUGUAGAAGGCCCGUCUU [JL-ex2-2.29 Mayanne mod] (puzzle: Exclusion 2) |  |  |  |  | 13.6 nM |  |
| UAGAUGGGAGGAUAUACGUAGAUGCAGGUUCGUGUGGUGCUACAUGAGGAUCACCCAUGUAGAAGGCCCGUCUU [Resubmit R3 JL-ex2-2.29] (Eterna round: R97, puzzle: Exclusion 2) | 77.4 nM | 18.4 nM |  |  |  |  |
| UAGGUACAUGAGGAUCACCCAUGUGAGGAUAUAGAUGAAGAUUGCGAGAGGGAGAGGACUAGAAGGCACAGUGG [JR_Exclu1_Sub036] (puzzle: Exclusion 1) |  |  |  |  | 30.9 nM |  |
| UAGGUACAUGAGGAUCACCCAUGUGAGGAUAUAGUUGAAGAUUGCGAGAGGGAGAGGACUAGAAGGCACAGUGG [JR_Exclu1_Sub037] (puzzle: Exclusion 1) |  |  |  |  | 40.9 nM |  |
| UAGGUACGAGGAUAUACAUAGAUACAGACACAUGUAGAUGUACAUGAGGAUCACCCAUGUAGAAGGCGUAUAUA [Mat - Same state - Mayanna Mod - D110] (Eterna round: R96, puzzle: Exclusion 2) |  |  | 60.7 nM |  |  |  |
| UAGUUACAUGAGGAUCACCCAUGUGAGGAUAUGAGUCAGUCACGGUGACGUGGCUGACUCAGAAGGCACAAAGG [Mat - Exclusion 1 - JL Mod - D38] (Eterna round: R97, puzzle: Exclusion 1) | 430 nM | 126 nM |  |  |  |  |
| UAUAAACAUGAGGAUCACCCAUGUGAGGAUAUCAAAACCAGAGCGGAUCUCUGGCCCAUGAGAAGGUGCAUGGU [ElNandoxlusion 8 - Jieux - Exclusion 1] (Eterna round: R97, puzzle: Exclusion 1) | 137 nM | 26.2 nM |  |  |  |  |
| UAUAAGAUAGGAUAUACAGGCCCGUCUUCAUAUCGAUCCCGACAUGAGGAUCACCCAUGUAGAAGGAUCGUGAG [Mod 21 - Jieux - Exclusion 2] (Eterna round: R97, puzzle: Exclusion 2) | 13.8 nM | 13.7 nM |  |  |  |  |

Source: the supplement of paper PMC9170038
